One experiment has as its target DcR3 (UniProt O95407). Kind of experiment: ELISA; receptor (DR3-Fc; DcR3) immobilised on Maxisorp plates, TL1A variant titrated in 3-fold dilutions, overnight 4 °C, detected with anti-human TL1A-biotin and streptavidin-HRP; concentrations normalised to TL1A trimer; triplicate. For orientation: In an ELISA, binding on a coated surface is turned into a signal by an enzyme label.

In another experiment the target is Recombinant DR3-Fc (UniProt Q93038). The description is as above.
Recombinant DR3-Fc, sequence (Q93038 25-199): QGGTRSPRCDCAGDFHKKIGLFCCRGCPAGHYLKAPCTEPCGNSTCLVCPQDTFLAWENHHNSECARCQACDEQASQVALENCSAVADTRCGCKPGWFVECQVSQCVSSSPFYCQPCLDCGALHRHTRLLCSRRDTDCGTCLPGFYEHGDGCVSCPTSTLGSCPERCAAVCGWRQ

DcR3, sequence (O95407 30-300): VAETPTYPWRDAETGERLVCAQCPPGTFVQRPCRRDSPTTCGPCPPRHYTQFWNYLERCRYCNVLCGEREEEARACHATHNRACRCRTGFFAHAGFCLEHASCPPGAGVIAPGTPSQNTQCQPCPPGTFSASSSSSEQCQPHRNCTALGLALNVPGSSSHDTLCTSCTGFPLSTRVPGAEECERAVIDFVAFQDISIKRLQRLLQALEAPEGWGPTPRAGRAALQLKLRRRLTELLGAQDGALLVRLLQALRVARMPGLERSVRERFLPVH

Turning to “TL1W24 (F209A) (from UniProt O95150 1-251) (ligand)”, the EC50 with DcR3 was found to be 30.7 nM; with Recombinant DR3-Fc it was 281 nM.
The like results for “TL1W25 (N207A) (from UniProt O95150 1-251) (ligand)” were, in that order, 3.7 nM and 13.4 nM.
In the case of “TL1W27 (T239E) (from UniProt O95150 1-251) (ligand)”, the EC50 with DcR3 came out at 34.3 nM.
As for “TL1W28 (E190G) (from UniProt O95150 1-251) (ligand)”, the EC50 was determined as 5.7 nM in the experiment with DcR3 and 22.6 nM with Recombinant DR3-Fc.
The like results for “TL1W29 (P189A) (from UniProt O95150 1-251) (ligand)” were, in that order, 7.6 nM and 710 nM.
As to “TL1W30 (N112E) (from UniProt O95150 1-251) (ligand)”, the EC50 was determined as 4.7 nM in the experiment with DcR3 and 16.4 nM in the experiment with Recombinant DR3-Fc.
The like results for “TL1W31 (R103Q) (from UniProt O95150 1-251) (ligand)” were, in that order, 2.5 nM and 9.5 nM.
The like results for “TL1W32 (Y188A) (from UniProt O95150 1-251) (ligand)” were, in that order, 7.6 nM and 565 nM.
Turning to “TL1W33 (E241L) (from UniProt O95150 1-251) (ligand)”, the concentration for a half-maximal effect (EC50) in the experiment with DcR3 came out at 5.7 nM.
Consider “TL1W33 (R103A) (from UniProt O95150 1-251) (ligand)”, for which the concentration for a half-maximal effect (EC50) in the experiment with DcR3 came to 3.3 nM; with Recombinant DR3-Fc, 25 nM.
The like results for “TL1W37 (L123E) (from UniProt O95150 1-251) (ligand)” were, in that order, 24.3 nM and 423 nM.
In the case of “TL1W39 (L123G) (from UniProt O95150 1-251) (ligand)”, the values for the EC50 in the experiment with DcR3 and with Recombinant DR3-Fc were 38.2 nM and 184 nM, respectively.
In the same order, the values of “TL1W40 (L123S) (from UniProt O95150 1-251) (ligand)” are 16.4 nM and 30.7 nM.
The like results for “TL1W41 (E120A) (from UniProt O95150 1-251) (ligand)” were, in that order, 32.6 nM and 100 nM.
In the same order, the values of “TL1W42 (F114A) (from UniProt O95150 1-251) (ligand)” are 11.4 nM and 77.7 nM.
“TL1W43 (Y188S) (from UniProt O95150 1-251) (ligand)”: the concentration for a half-maximal effect (EC50) with DcR3 was 72.2 nM; in the experiment with Recombinant DR3-Fc it was 207 nM.
The like results for “TL1W44 (P189K) (from UniProt O95150 1-251) (ligand)” were, in that order, 59.1 nM and 168 nM.
In the case of “TL1W46 (T239W) (from UniProt O95150 1-251) (ligand)”, the EC50 with Recombinant DR3-Fc was determined as 284 nM.
For the substance “TL1W47 (E241A) (from UniProt O95150 1-251) (ligand)”, the EC50 with DcR3 was 1310 nM; with Recombinant DR3-Fc, 260 nM.
On to “TL1W78 (R103H) (from UniProt O95150 1-251) (ligand)”, for which the EC50 with DcR3 was 8.1 nM; in the experiment with Recombinant DR3-Fc it was 77.2 nM.
With “TL1W79 (R103E) (from UniProt O95150 1-251) (ligand)”, the concentration giving a half-maximal response (EC50) with DcR3 turned out to be 7.1 nM; in the experiment with Recombinant DR3-Fc, 204 nM.
In the same order, the values of “TL1W81 (K111S) (from UniProt O95150 1-251) (ligand)” are 50.9 nM and 34.4 nM.
In the same order, the values of “TL1W82 (K111E) (from UniProt O95150 1-251) (ligand)” are 10.6 nM and 25.8 nM.
In the case of “TL1W83 (E120K) (from UniProt O95150 1-251) (ligand)”, the concentration giving a half-maximal response (EC50) in the experiment with DcR3 stood at 2.2 nM.
Turning to “TL1W84 (E120H) (from UniProt O95150 1-251) (ligand)”, the EC50 stood at 55.7 nM in the experiment with DcR3 and 182 nM with Recombinant DR3-Fc.
The like results for “TL1W85 (G124S) (from UniProt O95150 1-251) (ligand)” were, in that order, 57.1 nM and 296 nM.
The substance “TL1W86 (G124K) (from UniProt O95150 1-251) (ligand)” registered an EC50 in the experiment with DcR3 of 2.9 nM.
Consider “TL1W87 (G124D) (from UniProt O95150 1-251) (ligand)”, for which the EC50 in the experiment with Recombinant DR3-Fc came to 14.8 nM.
In the experiment with DcR3, “TL1W88 (R156A) (from UniProt O95150 1-251) (ligand)” returned an EC50 of 13.5 nM.
Still for that read-out and setting: the value for “TL1W89 (R156Y) (from UniProt O95150 1-251) (ligand)” was 8 nM.
Consider “TL1W90 (R156K) (from UniProt O95150 1-251) (ligand)”, for which the EC50 came to 11 nM with DcR3 and 188 nM with Recombinant DR3-Fc.
The substance “TL1W91 (R156E) (from UniProt O95150 1-251) (ligand)” yielded an EC50 with DcR3 of 8.3 nM.
Consider “TL1W93 (M158K) (from UniProt O95150 1-251) (ligand)”, for which the EC50 was found to be 55.9 nM with DcR3 and 22.5 nM with Recombinant DR3-Fc.
In the same order, the values of “TL1W94 (M158E) (from UniProt O95150 1-251) (ligand)” are 18.7 nM and 58.7 nM.
“TL1W96 (R170E) (from UniProt O95150 1-251) (ligand)”: the EC50 in the experiment with DcR3 is 16.4 nM; with Recombinant DR3-Fc it was 87 nM.
“TL1W97 (K173S) (from UniProt O95150 1-251) (ligand)”: the EC50 was 6.7 nM with DcR3 and 131 nM with Recombinant DR3-Fc.
Consider “TL1W98 (K173R) (from UniProt O95150 1-251) (ligand)”, for which the EC50 with DcR3 came to 27.8 nM; in the experiment with Recombinant DR3-Fc, 2050 nM.
On to “TL1W99 (S176A) (from UniProt O95150 1-251) (ligand)”, for which the EC50 came to 11.5 nM with DcR3 and 34.8 nM with Recombinant DR3-Fc.
In the same order, the values of “TL1W100 (S176L) (from UniProt O95150 1-251) (ligand)” are 15 nM and 324 nM.
“TL1W101 (S176N) (from UniProt O95150 1-251) (ligand)” gave an EC50 in the experiment with DcR3 of 20.4 nM.
“TL1W102 (S176K) (from UniProt O95150 1-251) (ligand)”: the results for the EC50 with DcR3 and with Recombinant DR3-Fc were 29.2 nM and 182 nM, respectively.
As to “TL1W103 (T185A) (from UniProt O95150 1-251) (ligand)”, the EC50 was 11.5 nM with DcR3 and 57.9 nM in the experiment with Recombinant DR3-Fc.
For the substance “TL1W104 (T185L) (from UniProt O95150 1-251) (ligand)”, the figures for the EC50 with DcR3 and with Recombinant DR3-Fc were 19.3 nM and 49.4 nM, respectively.
In the same order, the values of “TL1W105 (T185N) (from UniProt O95150 1-251) (ligand)” are 11.3 nM and 180 nM.
The like results for “TL1W106 (T185D) (from UniProt O95150 1-251) (ligand)” were, in that order, 79.9 nM and 124 nM.
In the same order, the values of “TL1W107 (D186Y) (from UniProt O95150 1-251) (ligand)” are 6.2 nM and 63.8 nM.
For the substance “TL1W108 (S187A) (from UniProt O95150 1-251) (ligand)”, the EC50 with Recombinant DR3-Fc came to 39.1 nM.
Regarding “TL1W110 (S187K) (from UniProt O95150 1-251) (ligand)”, the results for the EC50 with DcR3 and with Recombinant DR3-Fc were 15.8 nM and 33.7 nM, respectively.
In the same order, the values of “TL1W111 (S187D) (from UniProt O95150 1-251) (ligand)” are 16.7 nM and 44.2 nM.
In the same order, the values of “TL1W112 (P189F) (from UniProt O95150 1-251) (ligand)” are 66.1 nM and 202 nM.
The like results for “TL1W113 (P189S) (from UniProt O95150 1-251) (ligand)” were, in that order, 19.8 nM and 1000 nM.
“TL1W114 (T192A) (from UniProt O95150 1-251) (ligand)”: the results for the EC50 with DcR3 and with Recombinant DR3-Fc were 10 nM and 23.3 nM, respectively.
Take “TL1W115 (T192F) (from UniProt O95150 1-251) (ligand)”: the EC50 with DcR3 was 10.6 nM; in the experiment with Recombinant DR3-Fc, 14.2 nM.
For “TL1W116 (T192K) (from UniProt O95150 1-251) (ligand)”, the EC50 in the experiment with DcR3 worked out at 23.3 nM; in the experiment with Recombinant DR3-Fc, 77 nM.
The like results for “TL1W117 (T192E) (from UniProt O95150 1-251) (ligand)” were, in that order, 12 nM and 113 nM.
In the same order, the values of “TL1W118 (S206A) (from UniProt O95150 1-251) (ligand)” are 8.8 nM and 41.7 nM.
In the same order, the values of “TL1W119 (S206F) (from UniProt O95150 1-251) (ligand)” are 8.1 nM and 87.5 nM.
On to “TL1W120 (S206K) (from UniProt O95150 1-251) (ligand)”, for which the EC50 with DcR3 was 91 nM; with Recombinant DR3-Fc, 114 nM.
The like results for “TL1W121 (S206E) (from UniProt O95150 1-251) (ligand)” were, in that order, 17.2 nM and 105 nM.
The like results for “TL1W123 (N207S) (from UniProt O95150 1-251) (ligand)” were, in that order, 8.6 nM and 26.8 nM.
On to “TL1W124 (N207k) (from UniProt O95150 1-251) (ligand)”, for which the EC50 with DcR3 worked out at 15.4 nM; with Recombinant DR3-Fc, 110 nM.
The like results for “TL1W125 (N207E) (from UniProt O95150 1-251) (ligand)” were, in that order, 9.8 nM and 506 nM.
For “TL1W128 (Y238S) (from UniProt O95150 1-251) (ligand)”, the EC50 with DcR3 came out at 10.5 nM.
Substance “TL1W130 (Y238R) (from UniProt O95150 1-251) (ligand)” displayed an EC50 in the experiment with DcR3 of 16.9 nM.
Same read-out and setting: the value for “TL1W133 (T239F) (from UniProt O95150 1-251) (ligand)” was 10.8 nM; that for “TL1W134 (T239K) (from UniProt O95150 1-251) (ligand)” was 21.5 nM; that for “TL1W135 (K240A) (from UniProt O95150 1-251) (ligand)” was 8.5 nM.
On the same count and under the same terms, then “TL1W138 (K240D) (from UniProt O95150 1-251) (ligand)”, with 59.5 nM; and “TL1W139 (E241Q) (from UniProt O95150 1-251) (ligand)”, with 17.3 nM.

The EC50 is the concentration needed to bring the measured effect to its halfway point.

(Values after article PMC9709071.)
